The values that follow come from US12630600B2 (MEDIMMUNE LIMITED, priority 2022, dated 2026).

Starred links: 1 amine or outer side, 2 acyl side, 3 side chain; linkers in the order of their positions; H or OH if unused. Non-standard residues stand in square brackets, D forms with d. Groups on a side chain read outwards from the residue. No end group written: not given here. *: point of attachment. C20 diacid = O=C(O)CCCCCCCCCCCCCCCCCCC(=O)*; C18 diacid = O=C(O)CCCCCCCCCCCCCCCCC(=O)*; γGlu = O=C(O)[C@H](CCC(=O)[*:2])N[*:1]; αMeF = C[C@](N)(Cc1ccccc1)C(=O)O; AEEA = NCCOCCOCC(=O)O; Aib = CC(C)(N)C(=O)O

B1: Peptide 145 (peptide)
peptide: H[Aib]QGTFTSDVSK[αMeF]LDSK([AEEA-AEEA-γGlu-C18 diacid])RAQDFVRWLASRGI-OH
modifications: N-terminus assumed
SMILES: CC[C@H](C)[C@H](NC(=O)CNC(=O)[C@H](CCCNC(=N)N)NC(=O)[C@H](CO)NC(=O)[C@H](C)NC(=O)[C@H](CC(C)C)NC(=O)[C@H](Cc1c[nH]c2ccccc12)NC(=O)[C@H](CCCNC(=N)N)NC(=O)[C@@H](NC(=O)[C@H](Cc1ccccc1)NC(=O)[C@H](CC(=O)O)NC(=O)[C@H](CCC(N)=O)NC(=O)[C@H](C)NC(=O)[C@H](CCCNC(=N)N)NC(=O)[C@H](CCCCNC(=O)COCCOCCNC(=O)COCCOCCNC(=O)CC[C@H](NC(=O)CCCCCCCCCCCCCCCCC(=O)O)C(=O)O)NC(=O)[C@H](CO)NC(=O)[C@H](CC(=O)O)NC(=O)[C@H](CC(C)C)NC(=O)[C@](C)(Cc1ccccc1)NC(=O)[C@H](CCCCN)NC(=O)[C@H](CO)NC(=O)[C@@H](NC(=O)[C@H](CC(=O)O)NC(=O)[C@H](CO)NC(=O)[C@@H](NC(=O)[C@H](Cc1ccccc1)NC(=O)[C@@H](NC(=O)CNC(=O)[C@H](CCC(N)=O)NC(=O)C(C)(C)NC(=O)[C@@H](N)Cc1c[nH]cn1)[C@@H](C)O)[C@@H](C)O)C(C)C)C(C)C)C(=O)O
B2: Peptide 149 (peptide)
peptide: H[Aib]QGTFTSDVSK[αMeF]LDSK([AEEA-AEEA-γGlu-C18 diacid])RAQDFVRWVVE[Aib]G-OH
modifications: N-terminus assumed
SMILES: CC(C)C[C@H](NC(=O)[C@](C)(Cc1ccccc1)NC(=O)[C@H](CCCCN)NC(=O)[C@H](CO)NC(=O)[C@@H](NC(=O)[C@H](CC(=O)O)NC(=O)[C@H](CO)NC(=O)[C@@H](NC(=O)[C@H](Cc1ccccc1)NC(=O)[C@@H](NC(=O)CNC(=O)[C@H](CCC(N)=O)NC(=O)C(C)(C)NC(=O)[C@@H](N)Cc1c[nH]cn1)[C@@H](C)O)[C@@H](C)O)C(C)C)C(=O)N[C@@H](CC(=O)O)C(=O)N[C@@H](CO)C(=O)N[C@@H](CCCCNC(=O)COCCOCCNC(=O)COCCOCCNC(=O)CC[C@H](NC(=O)CCCCCCCCCCCCCCCCC(=O)O)C(=O)O)C(=O)N[C@@H](CCCNC(=N)N)C(=O)N[C@@H](C)C(=O)N[C@@H](CCC(N)=O)C(=O)N[C@@H](CC(=O)O)C(=O)N[C@@H](Cc1ccccc1)C(=O)N[C@H](C(=O)N[C@@H](CCCNC(=N)N)C(=O)N[C@@H](Cc1c[nH]c2ccccc12)C(=O)N[C@H](C(=O)N[C@H](C(=O)N[C@@H](CCC(=O)O)C(=O)NC(C)(C)C(=O)NCC(=O)O)C(C)C)C(C)C)C(C)C
B3: Peptide 144 (peptide)
peptide: H[Aib]QGTFTSDVSK[αMeF]LDSK([γGlu-γGlu-AEEA-AEEA-γGlu-γGlu-C18 diacid])RARDFVRWLLE[Aib]G-OH
modifications: N-terminus assumed
SMILES: CC(C)C[C@H](NC(=O)[C@H](Cc1c[nH]c2ccccc12)NC(=O)[C@H](CCCNC(=N)N)NC(=O)[C@@H](NC(=O)[C@H](Cc1ccccc1)NC(=O)[C@H](CC(=O)O)NC(=O)[C@H](CCCNC(=N)N)NC(=O)[C@H](C)NC(=O)[C@H](CCCNC(=N)N)NC(=O)[C@H](CCCCNC(=O)CC[C@H](NC(=O)CC[C@H](NC(=O)COCCOCCNC(=O)COCCOCCNC(=O)CC[C@H](NC(=O)CC[C@H](NC(=O)CCCCCCCCCCCCCCCCC(=O)O)C(=O)O)C(=O)O)C(=O)O)C(=O)O)NC(=O)[C@H](CO)NC(=O)[C@H](CC(=O)O)NC(=O)[C@H](CC(C)C)NC(=O)[C@](C)(Cc1ccccc1)NC(=O)[C@H](CCCCN)NC(=O)[C@H](CO)NC(=O)[C@@H](NC(=O)[C@H](CC(=O)O)NC(=O)[C@H](CO)NC(=O)[C@@H](NC(=O)[C@H](Cc1ccccc1)NC(=O)[C@@H](NC(=O)CNC(=O)[C@H](CCC(N)=O)NC(=O)C(C)(C)NC(=O)[C@@H](N)Cc1c[nH]cn1)[C@@H](C)O)[C@@H](C)O)C(C)C)C(C)C)C(=O)N[C@@H](CC(C)C)C(=O)N[C@@H](CCC(=O)O)C(=O)NC(C)(C)C(=O)NCC(=O)O
B4: Peptide 146 (peptide)
peptide: H[Aib]QGTFTSDVSK[αMeF]LDSK([AEEA-AEEA-γGlu-C18 diacid])RAQDFVRWLASR-OH
modifications: N-terminus assumed
SMILES: CC(C)C[C@H](NC(=O)[C@H](Cc1c[nH]c2ccccc12)NC(=O)[C@H](CCCNC(=N)N)NC(=O)[C@@H](NC(=O)[C@H](Cc1ccccc1)NC(=O)[C@H](CC(=O)O)NC(=O)[C@H](CCC(N)=O)NC(=O)[C@H](C)NC(=O)[C@H](CCCNC(=N)N)NC(=O)[C@H](CCCCNC(=O)COCCOCCNC(=O)COCCOCCNC(=O)CC[C@H](NC(=O)CCCCCCCCCCCCCCCCC(=O)O)C(=O)O)NC(=O)[C@H](CO)NC(=O)[C@H](CC(=O)O)NC(=O)[C@H](CC(C)C)NC(=O)[C@](C)(Cc1ccccc1)NC(=O)[C@H](CCCCN)NC(=O)[C@H](CO)NC(=O)[C@@H](NC(=O)[C@H](CC(=O)O)NC(=O)[C@H](CO)NC(=O)[C@@H](NC(=O)[C@H](Cc1ccccc1)NC(=O)[C@@H](NC(=O)CNC(=O)[C@H](CCC(N)=O)NC(=O)C(C)(C)NC(=O)[C@@H](N)Cc1c[nH]cn1)[C@@H](C)O)[C@@H](C)O)C(C)C)C(C)C)C(=O)N[C@@H](C)C(=O)N[C@@H](CO)C(=O)N[C@@H](CCCNC(=N)N)C(=O)O
B5: Peptide 147 (peptide)
peptide: H[Aib]QGTFTSDVSK[αMeF]LDSK([AEEA-AEEA-γGlu-C18 diacid])RAQDFVRWLEA[Aib]G-OH
modifications: N-terminus assumed
SMILES: CC(C)C[C@H](NC(=O)[C@H](Cc1c[nH]c2ccccc12)NC(=O)[C@H](CCCNC(=N)N)NC(=O)[C@@H](NC(=O)[C@H](Cc1ccccc1)NC(=O)[C@H](CC(=O)O)NC(=O)[C@H](CCC(N)=O)NC(=O)[C@H](C)NC(=O)[C@H](CCCNC(=N)N)NC(=O)[C@H](CCCCNC(=O)COCCOCCNC(=O)COCCOCCNC(=O)CC[C@H](NC(=O)CCCCCCCCCCCCCCCCC(=O)O)C(=O)O)NC(=O)[C@H](CO)NC(=O)[C@H](CC(=O)O)NC(=O)[C@H](CC(C)C)NC(=O)[C@](C)(Cc1ccccc1)NC(=O)[C@H](CCCCN)NC(=O)[C@H](CO)NC(=O)[C@@H](NC(=O)[C@H](CC(=O)O)NC(=O)[C@H](CO)NC(=O)[C@@H](NC(=O)[C@H](Cc1ccccc1)NC(=O)[C@@H](NC(=O)CNC(=O)[C@H](CCC(N)=O)NC(=O)C(C)(C)NC(=O)[C@@H](N)Cc1c[nH]cn1)[C@@H](C)O)[C@@H](C)O)C(C)C)C(C)C)C(=O)N[C@@H](CCC(=O)O)C(=O)N[C@@H](C)C(=O)NC(C)(C)C(=O)NCC(=O)O
B6: Peptide 148 (peptide)
peptide: H[Aib]QGTFTSDVSK[αMeF]LDSK([AEEA-AEEA-γGlu-C18 diacid])RAQDFVRWIAE[Aib]G-OH
modifications: N-terminus assumed
SMILES: CC[C@H](C)[C@H](NC(=O)[C@H](Cc1c[nH]c2ccccc12)NC(=O)[C@H](CCCNC(=N)N)NC(=O)[C@@H](NC(=O)[C@H](Cc1ccccc1)NC(=O)[C@H](CC(=O)O)NC(=O)[C@H](CCC(N)=O)NC(=O)[C@H](C)NC(=O)[C@H](CCCNC(=N)N)NC(=O)[C@H](CCCCNC(=O)COCCOCCNC(=O)COCCOCCNC(=O)CC[C@H](NC(=O)CCCCCCCCCCCCCCCCC(=O)O)C(=O)O)NC(=O)[C@H](CO)NC(=O)[C@H](CC(=O)O)NC(=O)[C@H](CC(C)C)NC(=O)[C@](C)(Cc1ccccc1)NC(=O)[C@H](CCCCN)NC(=O)[C@H](CO)NC(=O)[C@@H](NC(=O)[C@H](CC(=O)O)NC(=O)[C@H](CO)NC(=O)[C@@H](NC(=O)[C@H](Cc1ccccc1)NC(=O)[C@@H](NC(=O)CNC(=O)[C@H](CCC(N)=O)NC(=O)C(C)(C)NC(=O)[C@@H](N)Cc1c[nH]cn1)[C@@H](C)O)[C@@H](C)O)C(C)C)C(C)C)C(=O)N[C@@H](C)C(=O)N[C@@H](CCC(=O)O)C(=O)NC(C)(C)C(=O)NCC(=O)O
B7: Peptide 233 (peptide)
peptide: H[Aib]HGS[αMeF]TSDVSK[αMeF]LDSRAAK([AEEA-AEEA-γGlu-γGlu-C20 diacid])D[αMeF]VQ[Aib]IANTGG-NH2
modifications: N-terminus assumed
SMILES: CC[C@H](C)[C@H](NC(=O)C(C)(C)NC(=O)[C@H](CCC(N)=O)NC(=O)[C@@H](NC(=O)[C@](C)(Cc1ccccc1)NC(=O)[C@H](CC(=O)O)NC(=O)[C@H](CCCCNC(=O)COCCOCCNC(=O)COCCOCCNC(=O)CC[C@H](NC(=O)CC[C@H](NC(=O)CCCCCCCCCCCCCCCCCCC(=O)O)C(=O)O)C(=O)O)NC(=O)[C@H](C)NC(=O)[C@H](C)NC(=O)[C@H](CCCNC(=N)N)NC(=O)[C@H](CO)NC(=O)[C@H](CC(=O)O)NC(=O)[C@H](CC(C)C)NC(=O)[C@](C)(Cc1ccccc1)NC(=O)[C@H](CCCCN)NC(=O)[C@H](CO)NC(=O)[C@@H](NC(=O)[C@H](CC(=O)O)NC(=O)[C@H](CO)NC(=O)[C@@H](NC(=O)[C@](C)(Cc1ccccc1)NC(=O)[C@H](CO)NC(=O)CNC(=O)[C@H](Cc1c[nH]cn1)NC(=O)C(C)(C)NC(=O)[C@@H](N)Cc1c[nH]cn1)[C@@H](C)O)C(C)C)C(C)C)C(=O)N[C@@H](C)C(=O)N[C@@H](CC(N)=O)C(=O)N[C@H](C(=O)NCC(=O)NCC(N)=O)[C@@H](C)O

In the first assay the target is human GLP-1 receptor (human, UniProt P43220). Nature of the assay: cell-based or functional assay.
In the case of B1, the “cAMP production, hGLP-1R EC50 (pM)” value amounted to 22.6 pM.

For B2, the “cAMP production, hGLP-1R EC50 (pM)” value turned out to be 8.71 pM.

With B3, the “cAMP production, hGLP-1R EC50 (pM)” value came out at 45.2 pM.

As to B4, the “cAMP production, hGLP-1R EC50 (pM)” value stood at 24.6 pM.

B5: the “cAMP production, hGLP-1R EC50 (pM)” value was determined as 15.3 pM.

As to B6, the “cAMP production, hGLP-1R EC50 (pM)” value is 40.2 pM.

For a further assay, the target named is human glucagon receptor (human, UniProt P47871). Nature of the assay: cell-based or functional assay.
As to B1, the “cAMP production, hGluc-R EC50 (pM)” value is 4590 pM.

With B2, the “cAMP production, hGluc-R EC50 (pM)” value came to 2650 pM.

With B3, the “cAMP production, hGluc-R EC50 (pM)” value is 702 pM.

With B4, the “cAMP production, hGluc-R EC50 (pM)” value turned out to be 1630 pM.

For B5, the “cAMP production, hGluc-R EC50 (pM)” value was 43.5 pM.

With B6, the “cAMP production, hGluc-R EC50 (pM)” value was 568 pM.

The next assay concerns the target human GLP-1 receptor (human, UniProt P43220). Nature of the assay: cell-based or functional assay. The source holds these as a separate data set.
As to H[Aib]HGS[αMeF]TSDVSK[αMeF]LDSR[Aib]AK([AEEA-AEEA-γGlu-γGlu-C18 diacid])D[αMeF]VESIANT-NH2 [Peptide 250], the “hGLP-1R EC50 (pM)” value came out at 601 pM.

In a further assay the target is human glucagon receptor (human, UniProt P47871). Nature of the assay: cell-based or functional assay. This is another data set of the same source.
Take B7: the “hGluc-R EC50 (pM)” value is 407 pM.
